A protein production outcome set (Wang et al. 2014)

Test: label from the status in PepcDB records

## MNLEPLRKRVRQYLDQQQYQSALFWADKVASLSHEEPQDVYWLAQCLYLTAQYHRAAHALRSRKLDKLYEACRYLAARCHYAAKEHQQALDILDMEEPINRRLFEKYLKDDNGSRDPSSDWEMSQSSIKSSICLLRGKIYDALDNRTLATYSYKEALKLDVYCFEAFDLLTSHHMLTAQEEKELLDSLPLNKLCAEEQELLRFVFENKLKKYNKPSETVIPESVDGLQENLDVVVSLAERHYYNCDFKMCYKLTSTVMEKDPFHANCLPVHIGTLVELNKANELFYLSHKLVDLYPSNPVSWFAVGCYYLMVGHKNEHARRYLSKATTLEKTYGPAWIAYGHSFAVESEHDQAMAAYFTAAQLMKGCHLPMLYIGLEYGLTNNSKLAERFFGQALSIAPEDPFVIHEVGVVAFQNGEWKTAEKWFLDALEKIKAIGNEVTVDKWEPLLNNLGHVCRKLKKYAEALDYHRQALVLIPQNASTYSAIGYIHSLMGNFENAVDYFHTALGLRRDDTFSVTMLGHCIEMYIGDSEAYIGADIKDKLKCYDFDVHTMKTLKNIISPPWDFRDFEVEKQNTEEAGLAPLQNSTKAPESRPNLEETFEIEMNESDMMLETSMSDHST
  protein production: failed

## MADDKKKRNKKKKRSTGNKRKMTTEQSEAFKSITDWLILGSSPSLSSSSDDFAVNINSGSLRCGEKVVFELHSHSNRSDGFLSPSKVVERAYNNGVKVLSLTDHDTMAGVPEAVEAGRRFGIKIIPGIEISTLFGLRDSGSEEPVHILAYYGTSGPALYDELEDFLVKIRDGRFVRGREMVLKLNKLKIPLKWEHVTRIAGKDVAPGRMHVARALLEAGYVENLRQAFTKYLHDGGPAYATGTEPMAEEAVKLICKTGGVAVLAHPWALKNHVGIIRRLKDAGLHGVEVYRSDGKLEVFSELADTYNLLKLGGSDYHGKGGRNESELGSVNLPVTALQDFLNVGRPIWCEAIKATMRAFLDQPSDSNLSNILRFDKARILKGNSAWSCGKELMDRCLAIWLTSDERNSNDFEALRLKLSFVPIMSNGTCVTVGP
  protein production: failed

## RSAHLRVRQLPHAPEHPVATLSTVERRAINLTWTKPFDGNSPLIRYILEMSENNAPWTVLLASVDPKATSVTVKGLVPARSYQFRLCAVNDVGKGQFSKDTERVSLPE
  protein production: not failed

## EPAPRGFLLIGANRVAREIGQALARYDRRVLMTDSNWEYISQVRMMGLDYYYGNPISSHADDNLNMIGIGQVVALTPDQHFNIMACMQF
  protein production: failed

## MIPRVRAPELPQNYPWLNTEQPLSIKQLNGRVVILDFWTYCCINCLHVLPDLKYLEQKYKDSLTVIGVHSAKFDNEQETENIRQAILRYDIEHPVLVDKDFRVWQEYAVRAWPTLMVIDPKGYVIGYVSGEGNRDKLDQLITQVIQEHQGAINFQQLSLTLEKQRQPLITPLAFPGKVLATPSGLFVADSGHHRIVVSDFNGEILHLIGNGKSGLTDGNFQEAQFSAPQGMAFDMENQILYLADTENHALRRVDINQQTVETIAGTGEQSRNIQPHGGVGLETALNSPWDLVNIENSLYIAMAGVHQIWQMDLASGVIKTYAGTGVEACLDASLTESAFAQPSGITNNEQELYIADSEISSIRGVGLVEPQEVRTVCGSGGLFGFGDVDGQGEDVRLQHCLGVEYFQNYLWVADTYNHKIKSVSPHTGNCQTVLGDGLAGLQNGQGKNTRFFEPSGLSAIDSYLYISDTNNHVIRRVDLRTLEVTTMQFNGLCAPDVCIPNNFLEHHHHHH
  protein production: failed

## MKHYTVAINGLPQEFEGFTILHLTDLHAKKYGDQQDKLIRLINRQNFDMVAMTGDFIDKDNPDLEPTLELIQGLAAKPIFFVPGNHEWRYDFSIKSSLEEHGVKILDNKNAELARGDARLWIAGVDDPYLHRDKLEEALHGIADAQPKLLLAHAPNIFKPAAESGVELVLVGHTHGGQVRLPLIGAIVAPGQGLFPQYDYGHFTAGSTNMIVNGGLGESTLPLRFCSRPEIVLVKLVSAPLEHHHHHH
  protein production: failed

## MIIYDQHVHTSFSFDSNEKMEDYMKLAGQDFVSTEHLEFNNPEVQNHDSIPDYTKYVAEIERLKKATGKRVHKGIEIGMSAGQADKIKDYLAHHTFDIKLLSFHQDGTKDFGSNMVSHLDPLQVTDQYYQLMWKGINEFHDADVLAHFDYGVRRLSLTSGQFSTTAGVLLTNIFKVAIQNNLAFELNTKSMYKYHNIGLYDYAIEIYKQLGGKRYTIGSDAHDATHYEDHFRDALDMLKAHDIHHINVYRQGAMTVVPIDDIPEDL
  protein production: failed

## MYKNILILGRGIGQVMFQNNALSGGLMLLGIAFNSWQLAVLSVLGTVVSTLTASLSGYDKEDIRNGLYGFNGTLVGIAIGVFMEINVTSILLLISGSAFSTWVARCFRYQNRVSGLTAPFIFVVWLLLVGCHYLYPSLLLSSSLEKPELTMDIFRSFCLNIGQVMFQGNILSGLFFLLGILINSRMNALYTLTGAILPLFMILYPHTDLAAWNLGLLGYNGVLCAIALGDKTGIGVVKAIFSIILSIVLQLTGMHMGIVTLTAPFVFSVWITGGLFSVFRSKS
  protein production: failed

## MLLTIFSILAILCLVLYFYCMVILHLKNKGVYHPMTHAVSDYGIGQNKSYFQLAGLANTFRNLFLILSLIFWKYSFSFKKEAVLLLILAIIGYAGVALFPTDIEGSKRTVKGIIHLLFAILQFTALAIFIFNVTEVLKPLNATLFLIASYIKIVVEVGLYGLVIALFLPFVKKYFGLFERLFLYSSNLYILLLCVMMIRY
  protein production: failed

## MGHHHHHHSHMDNHNPMKDIEVTSSPDDSIGCLSFSPPTLPGNFLIAGSWANDVRCWEVQDSGQTIPKAQQMHTGPVLDVCWSDDGSKVFTASCDKTAKMWDLSSNQAIQIAQHDAPVKTIHWIKAPNYSCVMTGSWDKTLKFWDTRSSNPMMVLQLPERCYCADVIYPMAVVATAERGLIVYQLENQPSEFRRIESPLKHQHRCVAIFKDKQNKPTGFALGSIEGRVAIHYINPPNPAKDNFTFKCHRSNGTNTSAPQDIYAVNGIAFHPVHGTLATVGSDGRFSFWDKDARTKLKTSEQLDQPISACCFNHNGNIFAYASSYDWSKGHEFYNP
  protein production: failed

## RQAEEGPPPLPRQISDRSVGHYCSMNLTEHNGPKAQIFLNGKPDQPVWFSTIKQMFGYTKLPEEPKGIRVIYVTDMGNVTDWTNPNADTEWMDAKKAFYVIDSGFIGGMGAEDALPFGNKEQAEKFAKDKGGKVVGFDDMPDTYIFK
  protein production: not failed

## MQMDSAQNQFNKRARLFEDPELKDAKVIYPSNPESTEPVNKGYGGSTAIQSFFKESKAEETPKVLKKRGRKKKNPNPEEVNSSTPGGDDSENRSKFYESASARKRTVTAEERERAVNAAKTFEPTNPYFRVVLRPSYLYRGCIMYLPSGFAEKYLSGISGFIKLQLGEKQWPVRCLYKAGRAKFSQGWYEFTLENNIGEGDVCVFELLRTRDFVLEVTAFRVNEYV
  protein production: failed

## MIKSDDAGKLILRLALGILVIMHGLAKLSSGVGGIAGMLSSHGLPGFLAYFAYVGEIVGPLLIILGIYCRLGALLVVLNMVVAILLAHMGQLFSISNTGGWALELQGMFLFGALALAFMGAGRFSLAGSGGRWN
  protein production: failed

## MKFVHSETHRRHDPQFFIVRGQITRSTEQPERADRLLAAAQRRGHERVEARDFGEAILAEVHCPRYLDFLKNGYAQWRALPGASQEITPHVHPPREESGYPVSIIGRAGFHIADTSSPMGPHTWEAALAASHSACTAAQLVIEGAPAAYSLSRPPGHHATRDRAGGFCFLNHTAVAAQWLRHHVARVAILDVDVHHGNGTQDIFYERDDVLHVSLHADPAYFYPFFTGYAQETGRGIGAGCNLNLPLPIGTDDEAFLAALRIACRRVLDFKPDVVVVALGLDTYEGDPLNAFRITTPGFARIGQAIAGLALPTVLVQEGGYLSDELGENLATFLDGFCQHHRPTATLR
  protein production: failed

## MLVLILSSGVSVAIATETNDLSIAAVLISPSDVVFAKEANTIVVYGITNSGTENLTNITVDVYASDVSGTVPVNTETISSLAGGGTTTIFITDPTIRDLQGSTVTYTAVIDPDNLIPETNEANNNRSSAAVPVRYNGYKGKRYWEGASDITTKHTYDFNGDVSSSSQPSTSYRSQGAWSNGRTETWGGSVPNPDLPSGSTIEQALLYVAYNWDETPGGYPWWNVSFNNVIIDYGNISTGNGILYTDMSNFGLYADYEYGLVVYDVTNLYNSTDYNGLKMYPYNSTFADLTALYPSTLVIIYQNPNMTRKQIFINEECDELGVSESTYGTTPEEATAYAPFTGMSIDVSNVSNATLYSFAGSAGPDEGNLLFNGNTVATNAWHGDAYTASASVFDVKNYINSTGNEAGIQGTVSGGMDVLQQILVVEYVESVPSALDANLTANVTSGTAPLTVQFTDLSEGNVTNWLWDFGDNTNSTSQNVSHTYNSPGTYTVNLTVTGPEGSDSEVKTDFITVSDSNVSAPVAAFTATPLVGTAPLQVAFTDQSTNSPTEWKWEYNNGSGWVEFSNETNASYSFATAVPYDIQLTVSNSGGSDDETKLHYISVGNVREPLNTVQSGTVSGDLYISSPTTWPATEVNQTFTLPAAAVGNIQWAKLYVNTYSGSAANTYALSSTVKLDGDGDSTYESTLGTETMDIASLTNGASFPLNDHVNKVYSDYEAQYDVTSLISAANPAINVKSEAISGKNFDGRIKGVTLVVAYNNTSSTDQTYYWVNHGGDWSSPANGNTIFDTSGLSSGWVSAESKIRYFSYSDANYTFNGVAKTGSTPSNYSGLNTWDVTDNITAGQSSTLAYSKGSGSYKTTLATLKVKYETPGFSNKVTLGDTSPVSPTLASLNGRLYLAWKGDGNNNLNVMYSADNGMTFGNKYTSSETSPESPALCVHNNSLYIAWKGNGSNYLNVAQVTMNGDNITDFSNKVTLGDTSPVSPALASLNGRLYLAWKGDGNNNLNVMYSADNGMTFGNKYTSSETSPESPALCVHNNSLYIAWKGNGNNYLNVAQVTMNGDNITDFSNKVTLGDTSPVSPALASLNGRLYLAWKGDGNNNLNVMYSADNGMTFGNKYTSPETSPESPALCVHNNSLYIAWKGDGNNNLNVAQVI
  protein production: failed

## MVSIDTLIFQALNSSKFHPLYSPSINSINLQDDWAEKEGKEELSSILLLHRKASPPPPISALPNRNHKLQPLNLLFIDFPGQSFQQRERFRQFTASVRVYYVNDRKLNVQEGALIFFVRGVRYSLPLRELCDIYGFDNDLIGVALPGQFKDAQIFWSRFSNGIYDSKDAVHSEIRHLVLRYLVRLISSTLFCKMEPGKMRLSELLVLYHVVHDFFPDSLRFEEVDRDVNVGAVFAHHLVSLKTKPFTGRGKKLERVGSLLTPIFEHFRISFEGEELPCTALTKITSEHEELSFCPDPSLMHAAPRTRRHRGLASRSAPTQTEDEFIDPAEGLRVGSSSSALPYQLPSPPPIPMEPHVFQQYVVDSFKSVWNAIATLSR
  protein production: failed
